Consider one molecule from publication PMC3115958 (2011).

The assay addresses wild type sortilin expressed in COS-7 cells (UniProt Q99523 78-831).

The term Kd denotes a measure of binding affinity in units of concentration.

Sequence of wild type sortilin expressed in COS-7 cells (Q99523 78-831): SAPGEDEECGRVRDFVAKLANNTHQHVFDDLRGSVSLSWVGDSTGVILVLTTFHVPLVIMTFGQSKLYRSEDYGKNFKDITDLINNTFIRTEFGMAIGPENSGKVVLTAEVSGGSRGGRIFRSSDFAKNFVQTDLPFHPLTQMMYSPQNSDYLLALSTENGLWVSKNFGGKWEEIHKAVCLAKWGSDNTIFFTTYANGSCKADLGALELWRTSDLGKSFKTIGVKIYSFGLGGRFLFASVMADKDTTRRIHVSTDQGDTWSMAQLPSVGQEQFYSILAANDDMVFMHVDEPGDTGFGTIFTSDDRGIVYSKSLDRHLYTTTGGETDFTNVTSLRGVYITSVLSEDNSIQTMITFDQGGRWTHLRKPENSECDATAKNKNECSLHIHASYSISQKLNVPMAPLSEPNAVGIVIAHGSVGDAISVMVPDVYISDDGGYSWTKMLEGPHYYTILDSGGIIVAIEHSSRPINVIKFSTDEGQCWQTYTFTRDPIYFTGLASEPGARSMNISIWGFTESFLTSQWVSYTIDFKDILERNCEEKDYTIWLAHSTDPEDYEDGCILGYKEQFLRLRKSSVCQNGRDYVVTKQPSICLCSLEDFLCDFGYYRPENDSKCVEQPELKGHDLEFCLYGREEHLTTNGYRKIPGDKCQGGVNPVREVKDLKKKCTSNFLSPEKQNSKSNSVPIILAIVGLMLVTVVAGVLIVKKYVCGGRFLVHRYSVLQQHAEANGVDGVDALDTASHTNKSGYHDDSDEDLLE

B1: alkaline phosphatase tagged progranulin C100 (granulin E and its flanking region, aa 494-593) (domain or fragment)
chain: SCEKEVVSAQPATFLARSPHVGVKDVECGEGHFCHDNQTCCRDNRQGWACCPYRQGVCCADRRHCCPAGFRCAARGTKCLRREAPRWDAPLRDPALRQLL
For B1, the Kd turned out to be 3 nM. This lies in the single-digit nanomolar range.
